Read-outs that look alike come from different tables or passages of the source. Oligonucleotides are written 5' to 3', each unit as a sugar letter and its base; * is a phosphorothioate linkage, no mark a phosphodiester; rarer units and linkages stand in square brackets, end groups in braces. Plain capitals give the bases only. [invdT] = inverted (3'-3') thymidine; d = 2'-deoxy (DNA); m = 2'-O-methyl
B1: Reopro: IIbIIIa antagonist (antibody, chains of the INN, looked up, V domains shown)
VH: EVQLQQSGTVLARPGASVKMSCEASGYTFTNYWMHWVKQRPGQGLEWIGAIYPGNSDTSYIQKFKGKAKLTAVTSTTSVYMELSSLTNEDSAVYYCTLYDGYYVFAYWGQGTLVTVSA
VL: EIVLTQSPVTLSVTPGDSVSLSCRASRDISNNLHWFQQTSHESPRLLIKYASQSMSGIPSRFSGSGSGTDFTLSINSVETEDFGMYFCQQTNSWPYTFGGGTKLEIK
modifications: Fab
notes: IIbIIIa antagonist
B2: AMX238.E9: DNA SELEX 2 aptamer clone (nucleic acid)
DNA: CTACCTACGATCTGACTAGCGTGCAGTGCCCATCTTAGGCCGTGCGGTGCCTCCGTCACGCTTACTCTCATGTAGTTCC
modifications: DNA, backbone not given here
notes: DNA SELEX 2 aptamer clone
B3: AMX238.H5: DNA SELEX 2 aptamer clone (nucleic acid)
DNA: CTACCTACGATCTGACTAGCGTGCAGTGCCTATTCTAGGCCGTGCGGTGCCTCCGTCACGCTTACTCTCATGTAGTTCC
modifications: DNA, backbone not given here
notes: DNA SELEX 2 aptamer clone

Columns and labels:
[1] = system: full length human vWF binding to lyophilized platelets; assay: Full length human von Willebrand Factor platelet binding assay (FACS); format: cell-based; conditions: 5 nM full length human vWF, lyophilized platelets, botrocetin
Summary of the method: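 Aptamer titrations (0.1–1000 nM) pre-incubated with 5 nM full-length human vWF, then added to lyophilized platelets plus botrocetin for 15 min at 37 °C in PBS/0.5% BSA. Bound vWF detected by anti-vWF then FITC secondary antibody via flow cytometry MFI; % inhibition versus no-aptamer binding fitted for IC50.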

vWF = vWF (Homo sapiens, UniProt P04275, D1472H/Q852R/T1381A); assay: cellular / biological vWF dependent assays of Example 3, not specified further; format: cell-based; conditions: in words; FACS, BIPA (and PFA-100) assays of Example 3
vWF, sequence (P04275 764-2813 Q852R/T1381A/D1472H): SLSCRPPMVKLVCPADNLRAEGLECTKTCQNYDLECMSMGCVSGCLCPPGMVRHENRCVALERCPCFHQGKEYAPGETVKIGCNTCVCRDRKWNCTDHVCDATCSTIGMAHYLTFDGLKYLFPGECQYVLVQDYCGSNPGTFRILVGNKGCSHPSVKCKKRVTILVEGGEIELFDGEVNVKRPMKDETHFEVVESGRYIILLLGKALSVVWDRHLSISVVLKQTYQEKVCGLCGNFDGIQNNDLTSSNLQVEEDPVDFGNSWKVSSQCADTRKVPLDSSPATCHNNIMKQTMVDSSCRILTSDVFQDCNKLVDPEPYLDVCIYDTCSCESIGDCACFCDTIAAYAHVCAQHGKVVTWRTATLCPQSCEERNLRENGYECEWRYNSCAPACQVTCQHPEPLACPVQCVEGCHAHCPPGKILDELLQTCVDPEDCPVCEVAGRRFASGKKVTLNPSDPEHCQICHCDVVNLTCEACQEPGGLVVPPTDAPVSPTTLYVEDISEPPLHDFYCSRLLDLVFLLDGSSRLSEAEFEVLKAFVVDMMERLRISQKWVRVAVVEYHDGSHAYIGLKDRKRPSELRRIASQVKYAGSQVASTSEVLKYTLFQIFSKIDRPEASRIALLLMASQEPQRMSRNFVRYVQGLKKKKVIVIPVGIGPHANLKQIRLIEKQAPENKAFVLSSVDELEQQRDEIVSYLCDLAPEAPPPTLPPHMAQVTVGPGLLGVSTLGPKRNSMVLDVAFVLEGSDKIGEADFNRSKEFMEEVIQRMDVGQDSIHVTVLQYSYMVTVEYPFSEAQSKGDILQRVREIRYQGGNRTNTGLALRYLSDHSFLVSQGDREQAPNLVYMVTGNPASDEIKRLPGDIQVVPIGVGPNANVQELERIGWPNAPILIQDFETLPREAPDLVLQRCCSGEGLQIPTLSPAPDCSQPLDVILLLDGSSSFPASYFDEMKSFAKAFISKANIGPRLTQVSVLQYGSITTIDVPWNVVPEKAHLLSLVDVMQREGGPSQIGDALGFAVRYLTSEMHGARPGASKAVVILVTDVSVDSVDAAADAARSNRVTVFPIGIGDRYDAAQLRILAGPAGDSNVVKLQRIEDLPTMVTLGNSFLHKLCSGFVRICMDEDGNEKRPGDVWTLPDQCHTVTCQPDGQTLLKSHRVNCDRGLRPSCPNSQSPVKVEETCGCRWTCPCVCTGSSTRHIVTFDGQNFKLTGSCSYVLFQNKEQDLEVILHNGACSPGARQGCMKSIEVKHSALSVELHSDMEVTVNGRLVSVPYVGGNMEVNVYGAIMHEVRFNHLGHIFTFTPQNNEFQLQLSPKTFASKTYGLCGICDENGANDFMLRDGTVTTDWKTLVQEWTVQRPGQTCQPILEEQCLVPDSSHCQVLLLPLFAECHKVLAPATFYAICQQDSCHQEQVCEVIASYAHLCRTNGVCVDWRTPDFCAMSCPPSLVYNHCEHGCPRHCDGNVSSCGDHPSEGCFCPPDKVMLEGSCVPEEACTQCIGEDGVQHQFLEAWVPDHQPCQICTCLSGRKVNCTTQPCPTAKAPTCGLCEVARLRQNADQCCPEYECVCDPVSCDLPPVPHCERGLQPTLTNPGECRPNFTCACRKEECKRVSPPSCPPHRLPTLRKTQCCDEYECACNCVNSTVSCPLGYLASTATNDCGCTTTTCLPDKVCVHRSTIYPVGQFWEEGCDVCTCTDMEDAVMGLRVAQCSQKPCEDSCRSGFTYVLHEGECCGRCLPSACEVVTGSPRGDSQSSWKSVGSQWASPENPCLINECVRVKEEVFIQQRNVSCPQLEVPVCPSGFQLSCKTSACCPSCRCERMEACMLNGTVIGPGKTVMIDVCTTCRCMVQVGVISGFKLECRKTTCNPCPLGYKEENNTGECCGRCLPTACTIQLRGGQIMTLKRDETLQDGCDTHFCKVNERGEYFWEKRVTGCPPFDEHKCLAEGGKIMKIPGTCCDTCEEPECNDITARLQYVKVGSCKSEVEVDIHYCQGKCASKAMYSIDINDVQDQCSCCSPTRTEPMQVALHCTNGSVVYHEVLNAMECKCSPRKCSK
Description: The effectiveness of various aptamers in blocking vWF function in several biological assays is described in this Example.
In one assay botrocetin is used. Botrocetin, a protein isolated from snake venom, is known to induce von Willebrand Factor binding to the gpib receptor on live and fixed platelets. This reaction causes agglutination of suspensions of fixed platelets via vWF multimerization. In preparations of platelet rich plasma (hereinafter “PRP”), vWF/botrocetin induction of agglutination is followed by a second phase of platelet aggregation caused by metabolic activation of the platelets. These two reactions: vWF binding to fixed platelets and vWF mediated platelet aggregation, can be used to measure the activity of aptamers of the invention.

[2] = system: vWF dependent platelet plug formation, human whole blood; assay: PFA-100 assay, human whole blood; format: cell-based; conditions: citrated human whole blood; minimum concentration that extends closing time to 300 seconds
Description: Another assay of this Example, using the PFA-100 instrument, is an agonist independent but vWF dependent assay that uses the PFA-100 instrument (Harrison et al., Clin. Lab. Haem., v24, p 225-32 (2002)). The PFA-100 simulates the formation of a hemostatic plug under conditions of high shear force in vivo by recording the time required for a platelets to aggregate and block the flow of citrated whole blood through a microscopic aperture in a membrane coated with collagen and either epinephrine or ADP. This activity is von Willebrand factor dependent as high MW vWF multimers bind to immobilized collagen on the membrane and then bind to and activate platelets because of the shear force induced by drawing the blood through the microscopic aperture.
Fresh whole blood was collected from healthy non-steroidal anti-inflammatory drug (NSAID) free cynomolgus macaques. Aptamers were diluted with physiological saline from Aldon (Cat#9420306) in no-additive vacutainer tubes (Cat#366434, Becton Dickenson). Samples were loaded onto collagen/epinephrine test cartridges (Cat#B4170-20A, Dade Behring) which were used in the PFA-100 machine (Dade Behring). Trigger solution (Cat#B4170-50, Dade Behring) was used in the self-test and to pre-wet the test cartridges. O-ring cleaning pads (Cat#B4170-73, Dade Behring) were used in the self-test and in the O-ring cleaning process.
A self-test, which included an O-ring cleaning process, was always run on the PFA-100 machine before running any samples to ensure proper function of the machine.
During the entire experiment, the tubes of whole blood were gently inverted every five minutes to prevent settling.
In order to assay the titration of aptamer in whole blood, the aptamer was added to no-additive vacutainer tubes and diluted to the desired concentrations (ex: 0 nM, 1 nM to 1000 nM) using physiological saline such that the final volume was […]. When the PFA-100 was ready to run the next set of samples, 1940 μl of whole blood was added to the tube containing a concentration of aptamer. This tube was gently inverted three times to thoroughly mix the aptamer and blood. Samples were always run in duplicate on the PFA-100 machine. 800 μl of this blood mixture was loaded into the collagen/epinephrine test cartridges. The test cartridges were loaded onto the PFA-100 machine. The time of occlusion of the aperture was measured by the PFA-100, with a maximal time of 300 seconds. We estimate the IC95 in this assay to be the minimum concentration of aptamer that extends the closing time to 300 seconds.

[3] = system: botrocetin induced platelet aggregation; assay: Inhibition of botrocetin induced platelet aggregation (BIPA) in human PRP; format: cell-based; conditions: human platelet rich plasma
Description: In platelet rich plasma isolated from fresh human blood, botrocetin induces platelet aggregation via vWF. Platelet aggregate formation can be measured optically as an increase in % light transmittance on a Chronolog Model 490-4D Aggregometer because aggregation of platelets clarifies the plasma. Aptamers of the invention were analyzed for their ability to inhibit botrocetin induced platelet aggregation (“BIPA”) in human blood. An aptamer of the invention was considered to be active if it could prevent aggregate formation for six minutes post botrocetin addition.
In order to determine the activity of aptamers on live human platelets, BIPA assays were done using freshly prepared platelet rich plasma. Blood was obtained from healthy human donors who had not taken NSAIDS for at least five days. […] Collected blood was pooled into 15 mL conical tubes and was spun at 200 g for 20 minutes. The turbid, yellow layer of platelet rich plasma (“PRP”) was withdrawn from the tubes, pooled, and set aside at room temperature. The remaining blood was spun at 2500 g for ten minutes. The clarified layer of plasma, known as platelet poor plasma (“PPP”), was withdrawn and set aside at room temperature. PRP was aliquoted into cuvettes containing stir bars at a volume of 470 uL. A sample of 500 uL of PPP was aliquoted into a cuvette and placed in the PPP reference cell of the platelet aggregometer. Samples of PRP were prewarmed at 37 degrees C. in the platelet aggregometer for 3-5 minutes before being used in BIPA assays. First, the concentration of botrocetin needed to induce platelet aggregation for each individual donor was determined by titration. This concentration of botrocetin was used for the remainder of the experiment. Next, aptamer was assayed by adding titrations of aptamer (zero, 1 nM to 1000 nM) to prewarmed PRP for one minute, followed by addition of botrocetin. With platelet aggregation, an increase in amplitude of light transmission is seen (FIG. 8). The concentration at which platelet aggregation is blocked at 90% or greater after 6 minutes is reported in the final column of Table 26.

[4] = pharmacokinetics after 3 mg/kg IV in cynomolgus macaques (Oligreen, HPLC); format: in vivo; conditions: cynomolgus monkey, in vivo, iv, 3 mg/kg
Description: ARC1368 (SEQ ID NO 291), 1779 (SEQ ID NO 320) and 1780 (SEQ ID NO 321) (as described in Example 2 above) were injected intravenously into cynomolgus macaques (n=3/group) at a dosage of 3 mg/kg which was expected to yield an instantaneous plasma concentration of 3 uM, approximately 30-fold higher than the putative effective dose. Subsequently, citrated blood samples were collected at regular intervals and processed for plasma.
Subsequently, plasma aptamer concentrations were determined using the Oligreen assay (Gray et al., Antisense and Nucleic Acid Drug Development 7 (3):133-140 (1997). The data were subsequently analyzed using the program WinNonlin to yield the pharmacokinetic parameters listed in Tables 29 to 31 below.
Following the Oligreen assay analysis, plasma aptamer concentrations were determined for the animals dosed with ARC1779 (SEQ ID NO 320) using a validated HPLC-based assay. The HPLC data were analyzed via noncompartmental and 2-compartment analysis using the program WinNonlin.

[5] = system: full length human vWF (SEQ ID NO 7); assay: dot blot KD determination and extent of binding, full length human vWF; conditions: dot blot; for Kd: 12 point protein titration, 1xDPBS plus 0.1 mg/mL BSA, room temperature, 30 minutes, read-out: full length human vWF KD;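 on all read-outs here: dot blot binding of aptamers to full length human vWF across a protein titration, incubated 30 minutes at room temperature in 1x DPBS with BSA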
[6] = system: intra-arterial thrombosis of carotid arteries; assay: cynomolgus macaque electrolytic thrombosis model; format: in vivo, cynomolgus monkeys; conditions: animals treated with Reopro
Description: A study was performed to test the efficacy of ARC1779 (SEQ ID NO 320) in inhibiting intra-arterial thrombosis in a well documented non-human primate electrolytic thrombosis model. See, e.g., Rote et al., Stroke, 1994: 25, 1223-1233.
Each animal was anesthetized prior to surgical preparation, intubated and maintained in anesthesia with isoflurane inhalant anesthetic to effect delivered through a volume-regulated respirator. An intravenous catheter was also placed in a peripheral vein for administration of lactated Ringer's solution during the procedure.
A catheter was placed in the femoral artery of each animal for continuous monitoring of arterial blood pressure. Similarly a catheter was placed in the femoral vein for blood sample collection. Each carotid artery was instrumented with a Doppler flow probe connected to a flow meter. The flow probes were placed around the artery at a point proximal to the insertion of the intra-arterial electrode and stenosis. The stenosis was placed around each carotid artery so that the […] was reduced by approximately 50% to 60% without altering the mean […]. Blood flow in the carotid arteries was monitored and recorded continuously throughout the observation periods.
Electrolytic injury to the intimal surface of each carotid artery was accomplished via placement of an intravascular electrode. Each electrode was connected to the positive pole of a constant current device and cathode connected to a distant subcutaneous site. Continuous current was delivered to each vessel for a period of 3 hours or for 30 minutes after complete occlusion, whichever was shorter.
Once the electrodes were placed on the right carotid artery (“RCA”) the animal was administered the test article as indicated in Table 32 above. Approximately 15 minutes after test article administration, the electrical current was applied at 100 μA. Blood samples and CBT measurements were collected at the time points specified in Blood Sample Collection Schedule as indicated in FIG. 31. The current was terminated ˜30 minutes after the blood flow signal remained stable at zero flow (which indicates an occlusive thrombus had been formed at the site) or after 180 minutes of electrical stimulation. Approximately 195 minutes after the test article was administered, the left carotid artery (“LCA”) had electrical current administered in a similar fashion as previously described for the RCA. After termination of all surgical procedures and sample collection each animal was euthanized.
An additional 10 cynomolgus monkeys (2.5 to 3.5 kg) were divided into treatment groups 5 to 7 and were treated according the regimen indicated in Table 33 below.
The animal procedure for each treatment group in Table 33 was conducted as reported for the animals in Example 5B.

[7] = system: rabbit vWF A1 domain (SEQ ID NO 6); assay: 3-point dot blot screen, rabbit vWF A1 domain; format: binding; conditions: 3-point dot blot screen, 20 nM rabbit vWF A1 domain; ratio of fraction of aptamer bound with target protein to fraction bound without protein
rabbit vWF A1 domain (SEQ ID NO 6), sequence (as listed by the source): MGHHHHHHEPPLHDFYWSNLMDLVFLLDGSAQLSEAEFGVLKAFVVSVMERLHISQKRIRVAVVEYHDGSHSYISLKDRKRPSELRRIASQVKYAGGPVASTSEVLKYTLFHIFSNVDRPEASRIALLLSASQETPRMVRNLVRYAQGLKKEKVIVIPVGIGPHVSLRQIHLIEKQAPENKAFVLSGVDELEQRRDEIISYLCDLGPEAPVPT
Summary of the method: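 Rabbit vWF A1 domain binding was screened by dot blot using three conditions: no target protein, human vWF, and rabbit vWF A1 domain at 100 nM (20 nM in the screen run twice). Radiolabeled aptamer bound to nitrocellulose was quantified, and results are expressed as the ratio of bound fraction with protein to bound fraction without protein.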

full length human vWF = assay: 3-point dot blot screen, full length human vWF; format: binding; conditions: 20 nM full length human vWF, ratio of fraction of aptamer bound with target protein to fraction bound without protein
Summary of the method: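 Unique aptamer clones tested twice by nitrocellulose dot blot with no protein, 20 nM full-length human vWF or 20 nM rabbit vWF A1 domain. Value is fraction of aptamer bound with target divided by fraction bound without protein.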

[8] = system: rabbit vWF A1 domain (SEQ ID NO 6); assay: dot blot KD determination, rabbit vWF A1 domain; format: binding; conditions: dot blot, 12 point protein titration, 1xDPBS plus 0.1 mg/mL BSA, room temperature, 30 minutes
Description: A 12 point protein titration was used in the dot blot assay (300 nM, 100 nM, 30 nM, 10 nM, 3 nM, 1 nM, 300 pM, 100 pM, 30 pM, 10 pM, 3 pM, 0 pM) in 1×DPBS plus 0.1 mg/mL BSA at room temperature for 30 minutes.

[9] = read-out: Inhibition of full length hVWF binding in FACS assay, Average IC50

| Molecule | IC50 [1, 9] [pM] | activity in the cellular / biological assays (vWF) | Screen Rabbit/No Protein [7] | Screen- Human/No Protein (full length human vWF) | Kd [8] [nM] | Kd [5] [nM] | other results |
| --- | --- | --- | --- | --- | --- | --- | --- |
| GGACGATCTGACTAGCTCCAGTGTTTTATCTAATAACCGTCC (DNA, backbone not given here) [SEQ ID NO 208, minimized DNA aptamer] | 4300 | demonstrated activity |  |  |  |  |  |
| PEG40K-NH2-mGmCmGmUdGdCdAmGmUmGmCmCmUmUmCmGmGmCdCmG-s-TmGdCdGdGTmGmCdCmUdCdCmGmUdCmAmCmGmC-3T [ARC1780] |  |  |  |  |  |  | ~IC95 PFA-100 (nM) with citrated human whole blood [2]: ~100 nM; IC90 [3]: ~100 nM; AUCall, Mean [4]: 751.065 µg·h/mL; AUClast, Mean [4]: 751.065 µg·h/mL; MRTlast, Mean [4]: 10.78 h; distribution phase [4]: prolonged distribution phase; pharmacokinetic profile [4]: mainly monophasic |
| mGmCmGmUdGdCdAmGmUmGmCmCmUmUmCmGmGmCdCmGmTmGdCdGdGTmGmCdCmUdCdCmGmUmCmAmCmGmC-3T (mGmCmGmUdGdCdAmGmUmGmCmCmUmUmCmGmGmCdCmGmTmGdCdGdGdTmGmCdCmUdCdCmGmUmCmAmCmGmC[invdT]) [ARC1525] |  | did not display activity |  |  |  |  | binding to human vWF ([5]; in words): no binding at all |
| B1 |  |  |  |  |  |  | arteries that developed occlusive thrombi [6]: 20% |
| B2 | 3400 | slightly more potent | 3.36 | 3.44 | 5.3 | 0.39 | IC50 ([1]; units in the cell: lower bound pM, upper bound nM, read-out: Inhibition of full length hVWF binding in FACS assay, IC50 range): 772 to 6500 pM |
| B3 | 658 | slightly more potent | 3.46 | 3.75 | 6 | 0.33 |  |

From patent publication US7998940B2, “Aptamers to von Willebrand factor and their use as thrombotic disease therapeutics” (Archemix Corp., priority 2004, dated 2011)
